Reference: PMC5880107, “The Sequence-specific Peptide-binding Activity of the Protein Sulfide Isomerase AGR2 Directs Its Stable Binding to the Oncogenic Receptor EpCAM*^([image sbox.jpg])” (Molecular & Cellular Proteomics : MCP, 2018)

B1: His-AGR2 WT (mature AGR2, amino acids 21-175, N-terminal 6xHis tag; plasmid pmAGR2) [human] / His-EpEX-CO, extracellular domain of EpCAM (amino acids 24-265), N-terminal 6xHis tag [human] (parent complex)
chain 1: RDTTVKPGAKKDTKDSRPKLPQTLSRGWGDQLIWTQTYEEALYKSKTSSKPLMIIHHLDECPHSQALKKVFAENKEIQKLAEQFVLLNLVYETTDKHLSPDGQYVPRIMFVDPSLTVRADITGRYSNRLYAYEPADTALLLDNMKKALKLLKTEL
chain 2: QEECVCENYKLAVNCFVNNNRQCQCTSVGAQNTVICSKLAAKCLVMKAEMNGSKLGRRAKPEGALQNNDGLYDPDCDESGLFKAKQCNGTSMCWCVNTAGVRRTDKDTEITCSERVRTYWIIIELKHKAREKPYDSKSLRTALQKEITTRYQLDPKFITSILYENNVITIDLVQNSSQKTQNDVDIADVAYYFEKDVKGESLFHSKKMDLTVNGEQLDLDPGQTLIYYVDEKAPEFSMQGLK
B2: wt-peptide PTTIYY (non-biotinylated hexapeptide) / His-AGR2 WT (mature AGR2, amino acids 21-175, N-terminal 6xHis tag; plasmid pmAGR2) [human] (parent complex)
chain 1: PTTIYY
chain 2: B1 chain 1

Variants of: B1
Experiment: ELISA (His-EpCAM solid phase; His-AGR2 mobile phase); point at 0.5 μg AGR2 (highest dose of the titration); no DTT; read off a plot

Point of comparison: chain 1 S114A, response ~160 RLU. Against it:
- chain 1 P113A — lower, ~150 RLU
- chain 1 D112A — lower, ~140 RLU

Variants of: B1
Experiment: ELISA (His-EpCAM solid phase; His-AGR2 mobile phase); point at 0.5 μg AGR2 (highest dose of the titration); 1 mm DTT at the AGR2-binding stage; read off a plot

Point of comparison: chain 1 S114A, response ~160 RLU. Against it:
- chain 1 P113A — lower, ~35 RLU
- chain 1 D112A — lower, ~110 RLU

Variants of: B2
Experiment: competition ELISA (AGR2 binding to immobilised biotinylated peptide A4 with free competitor peptide); 1 μg AGR2; 100 ng competitor peptide; RLU is AGR2 bound to peptide A4, so lower RLU = stronger competitor binding; DMSO (no competitor) est. 79; read off a plot

Point of comparison: chain 1 P1W, response ~9 RLU. Against it:
- chain 1 I4A — higher, ~83 RLU
- chain 1 Y5A — higher, ~84 RLU
- chain 1 P1L — higher, ~15 RLU
- chain 1 T3V — higher, ~35 RLU
- chain 1 P1F — lower, ~6 RLU
- chain 1 Y5F — higher, ~40 RLU
- chain 1 P1M — higher, ~17 RLU
- chain 1 T3I — higher, ~75 RLU
- chain 1 P1V — higher, ~11 RLU
- chain 1 T3A — lower, ~6 RLU
- chain 1 T3G — higher, ~12 RLU
- chain 1 T3M — lower, ~8 RLU
- chain 1 T2A — higher, ~84 RLU
- chain 1 T2S — higher, ~83 RLU
- chain 1 Y5W — higher, ~20 RLU
- chain 1 P1G — lower, ~7.5 RLU
- chain 1 T2C — higher, ~80 RLU
- chain 1 Y6A — higher, ~60 RLU
- chain 1 P1I — lower, ~7.5 RLU
- chain 1 T3L — higher, ~66 RLU
- chain 1 I4M — higher, ~80 RLU
- chain 1 I4L — higher, ~44 RLU
- chain 1 I4V — higher, ~55 RLU
- chain 1 T3S — lower, ~7 RLU
- chain 1 Y6F — higher, ~25 RLU
- chain 1 P1A — lower, ~6 RLU
